One test addresses T1, NANPx6 peptide (Plasmodium falciparum CSP repeat, …).
T1 construct: also called NANP6; short repeat peptide
The test is described as follows: ELISA. As to conditions: both partners purified.

In another test the target is T2, NPDP19 peptide (Plasmodium falciparum CSP junction, …).
T2 construct: also called peptide NPDP-19
T2 chain: KQPADGNPDPNANPNVDPN
Nature of the test: ELISA. As to conditions: both partners purified. A general note: ELISA stands for enzyme-linked immunosorbent assay.

Test [1] deals with T3, P. falciparum CSP on transgenic P. berghei sporozoites (Plasmodium falciparum, gene strain not …, UniProt Q7K740).
T3 construct: also called transgenic P. berghei sporozoites carrying the P. falciparum CSP gene; transgenic P. berghei-falciparum sporozoites
The test is described as follows: ELISA. As to conditions: one partner purified.

The target in test [2] is P. falciparum sporozoite CSP (Plasmodium falciparum NF54, UniProt P19597). Nature of the test: cell-based or functional assay.
A further test deals with T4, biotinylated NANPx6 (Plasmodium falciparum CSP repeat, …).
T4 construct: also called NANPx6 peptide; NANPx6 target antigen
The test is described as follows: BLI; Octet RED96; biotinylated FL-CSP or biotinylated NANPx6 on streptavidin biosensors, Fab in solution, kinetics buffer; global fit to 1:1 Langmuir model. The settings on record: both partners purified.

Another test deals with T5, peptide 21 (Plasmodium falciparum CSP junction, …).
T5 construct: also called NP-DPNA-NPNV-DPNA-N
T5 chain: NPDPNANPNVDPNAN
The test is described as follows: ELISA. As to conditions: both partners purified.

We go through ten molecules from PMC7970865 (Scientific Reports, 2021).

The Kd is the free concentration of one partner at which half of the binding sites on the other are occupied at equilibrium, for simple one-to-one binding. Read a high Kd as a looser complex. What is called koff is the first-order rate constant of dissociation. A high value points to a short-lived complex. By kon is commonly meant the rate constant with which the complex forms. A high value points to fast association.

B1: mAb 311 (antibody, V domains shown)
VH: QVQLVESGGGVVPPGRSLRLSCATSGFTFSNYGMHWVRQAPGKGLEWVAIIWYDGSRNFYAASVEGRFTISRDNSKNTLYLQMNSLRVEDTAVYYCARAAYYDTSGYGDYWGQGTLVTVSS
VL: QSVLTQPPSVSGAPGQTVTISCTGGSSNIGAGYDVHWYQQLPGTAPKLLIYGNINRPSGVPDRFSGSKSGTSASLAITGLQAEDEADYYCQSYDRRLSGSWVFGGGTKLTVL
Consider B1, for which the “ng/ml mAb needed for OD = 1” value in the test with NANPx6 peptide is less than 10 ng/mL. Also, the binding result (in the test with NPDP19 peptide; in test [1]) was “binds” each time. In test [2], this molecule returned an other of roughly 100%.

B2: Fab 311 (Fab, V domains shown)
VH: QVQLVESGGGVVPPGRSLRLSCATSGFTFSNYGMHWVRQAPGKGLEWVAIIWYDGSRNFYAASVEGRFTISRDNSKNTLYLQMNSLRVEDTAVYYCARAAYYDTSGYGDYWGQGTLVTVSS
VL: QSVLTQPPSVSGAPGQTVTISCTGGSSNIGAGYDVHWYQQLPGTAPKLLIYGNINRPSGVPDRFSGSKSGTSASLAITGLQAEDEADYYCQSYDRRLSGSWVFGGGTKLTVL
In the test with biotinylated NANPx6, B2 registered a Kd of 7 nM, a koff of 0.0002 s⁻¹ and an association rate constant (kon) of 27000 M⁻¹ s⁻¹.

B3: mAb 317 (antibody, V domains shown)
VH: QMQLVESGGGVVQPGRSLRLSCTASGFTFSTYAMHWVRQSPGQGLQWVAVISYHSTNKYYEDSVRGRFTISRDNSKNTLYLQMNSLRAEDTAVYYCARDGYSSSFFDFWGQGTLVTVSS
VL: DIQMTQSPSTLSASVGDRVAITCRASQSISRWLAWYQQQPGKAPKLLMSGASVLESGVPSRFSGSGSGTEFTLTISSLQPDDFATYYCQHYNSYFVTFGQGTKVEIK
On to B3, for which the “ng/ml mAb needed for OD = 1” value with NANPx6 peptide was less than 10 ng/mL.

B4: Fab 317 (Fab, V domains shown)
VH: QMQLVESGGGVVQPGRSLRLSCTASGFTFSTYAMHWVRQSPGQGLQWVAVISYHSTNKYYEDSVRGRFTISRDNSKNTLYLQMNSLRAEDTAVYYCARDGYSSSFFDFWGQGTLVTVSS
VL: DIQMTQSPSTLSASVGDRVAITCRASQSISRWLAWYQQQPGKAPKLLMSGASVLESGVPSRFSGSGSGTEFTLTISSLQPDDFATYYCQHYNSYFVTFGQGTKVEIK
Take B4: in the test with biotinylated NANPx6, the Kd came to 0.003 nM.

B5: mAb 663 (antibody, V domains shown)
VH: EVQLLESGGGLEQPGGSLRLSCVVSGFTFSNYAFNWVRQAPGKGLEWVAIIYRSGSRMYHADSVKGRFTISRDDSKNTLFLQMNNLRAEDTAVYYCTTLLIYESDVGVDFWGQGTLVTVSS
VL: DIVMTQSPLSLPVSPGEPASISCRSTQSLIFGEHNYLDWYLQKPGQSPQLLIYLASNRASGVPDRFSGSGSGTYFTLKISRVEAEDFGVYYCVQTVQVPYTFGQGTKLEIK
In the case of B5, the “ng/ml mAb needed for OD = 1” value in the test with NANPx6 peptide was less than 10 ng/mL. Besides, the binding result (in the test with NPDP19 peptide; in test [1]) was “binds” throughout. This molecule gave an other in test [2] of roughly 100%.

B6: Fab 663 (Fab, V domains shown)
VH: EVQLLESGGGLEQPGGSLRLSCVVSGFTFSNYAFNWVRQAPGKGLEWVAIIYRSGSRMYHADSVKGRFTISRDDSKNTLFLQMNNLRAEDTAVYYCTTLLIYESDVGVDFWGQGTLVTVSS
VL: DIVMTQSPLSLPVSPGEPASISCRSTQSLIFGEHNYLDWYLQKPGQSPQLLIYLASNRASGVPDRFSGSGSGTYFTLKISRVEAEDFGVYYCVQTVQVPYTFGQGTKLEIK
Turning to B6, in the test with biotinylated NANPx6, the Kd was determined as 138 nM, the koff was 0.056 s⁻¹ and the on-rate constant (kon) was 400000 M⁻¹ s⁻¹.

B7: mAb CIS43 (antibody, V domains shown)
VH: QVQLVQSGAEVKKPGASVKVSCKASGYTFTSYAIHWVRQAPGQRLEWMGWIKAGNGNTRYSQKFQDRVTITRDTSTTTAYMELSSLRSEDTAVYYCALLTVLTPDDAFDIWGQGTMVTVSS
VL: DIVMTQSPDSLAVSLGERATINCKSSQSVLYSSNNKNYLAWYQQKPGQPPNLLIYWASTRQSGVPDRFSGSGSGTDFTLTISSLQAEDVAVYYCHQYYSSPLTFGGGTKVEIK
In the case of B7, the “ng/ml mAb needed for OD = 1” value in the test with NANPx6 peptide was less than 10 ng/mL. Further, the binding result with NPDP19 peptide and with peptide 21 was “binds” throughout. This molecule also displayed an other in test [2] of roughly 100%.

B8: Fab CIS43 (Fab, V domains shown)
VH: QVQLVQSGAEVKKPGASVKVSCKASGYTFTSYAIHWVRQAPGQRLEWMGWIKAGNGNTRYSQKFQDRVTITRDTSTTTAYMELSSLRSEDTAVYYCALLTVLTPDDAFDIWGQGTMVTVSS
VL: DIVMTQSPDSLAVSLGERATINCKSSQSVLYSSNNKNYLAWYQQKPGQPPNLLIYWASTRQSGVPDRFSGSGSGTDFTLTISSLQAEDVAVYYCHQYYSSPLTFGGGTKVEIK
In the test with biotinylated NANPx6, B8 returned a Kd of 41 nM, a koff of 0.0017 s⁻¹ and a kon of 40000 M⁻¹ s⁻¹.

B9: mAb MGG4 (antibody, V domains shown)
VH: QVQLVESGGGVVQPGRSLRLSCAASGFRFSDYGMHWVRQAPGKGLEWVALIWYDGSNESYLDSVKGRFTISRDNSKNTLYLQMNNLRTEDTAVYYCAKLLVGITTDVFDVWGQGTVVTVSS
VL: DIVMTQSPDSLAVSLGERATINCRSSQSVLSSSNNKNYLAWYQHKPRQPPKLLIYWASTRESGVPDRFSGSGSGTDFTLTISSLQAEDVAVYYCQQYYTASPFFGGGTKVEIK
Regarding B9, in the test with NANPx6 peptide, the “ng/ml mAb needed for OD = 1” value is less than 10 ng/mL. Also, the binding result (with NPDP19 peptide; in test [1]) was “binds” each time. In addition, the other in test [2] was roughly 100%.

B10: Fab MGG4 (Fab, V domains shown)
VH: QVQLVESGGGVVQPGRSLRLSCAASGFRFSDYGMHWVRQAPGKGLEWVALIWYDGSNESYLDSVKGRFTISRDNSKNTLYLQMNNLRTEDTAVYYCAKLLVGITTDVFDVWGQGTVVTVSS
VL: DIVMTQSPDSLAVSLGERATINCRSSQSVLSSSNNKNYLAWYQHKPRQPPKLLIYWASTRESGVPDRFSGSGSGTDFTLTISSLQAEDVAVYYCQQYYTASPFFGGGTKVEIK
notes: also called MGG4 Fab
In the test with biotinylated NANPx6, B10 registered a Kd of 51 nM, a koff of 0.0045 s⁻¹ and a kon of 90000 M⁻¹ s⁻¹.
